{"source": "paper PMC11933295", "about": "“Inhibiting hedgehog signal by a patched-1 antibody” (Cell Discovery, 2025)", "binders": {"B1": {"name": "Fab^6H3 (Fab, V domains shown)", "VH": "EVQLVESGGGLVKPGGSRKLSCVASGFTLSDYGMHWVRQAPEKGLEWVAYIGSDSYTIYHADTMKGRFTISRDNAKNTLFLQMTSLRSEDTAMYYCGRNYGMDYWGQGTS", "VL": "VLTQSPAIMSASLGERVTLTCTASSSVTSSYLHWYQQKPGSSPKLWIYSTSNLPFGVSPRFSGSGSGTSFSLTISSMEAEDAATYYCHQFHRSPYTFGGGTK"}}, "biological_target": "T1, engineered human PTCH1 protein (PTCH1*, a functional PTCH1 variant with two cytosolic loops truncated) (Homo sapiens, stabilised)", "T1 chain": "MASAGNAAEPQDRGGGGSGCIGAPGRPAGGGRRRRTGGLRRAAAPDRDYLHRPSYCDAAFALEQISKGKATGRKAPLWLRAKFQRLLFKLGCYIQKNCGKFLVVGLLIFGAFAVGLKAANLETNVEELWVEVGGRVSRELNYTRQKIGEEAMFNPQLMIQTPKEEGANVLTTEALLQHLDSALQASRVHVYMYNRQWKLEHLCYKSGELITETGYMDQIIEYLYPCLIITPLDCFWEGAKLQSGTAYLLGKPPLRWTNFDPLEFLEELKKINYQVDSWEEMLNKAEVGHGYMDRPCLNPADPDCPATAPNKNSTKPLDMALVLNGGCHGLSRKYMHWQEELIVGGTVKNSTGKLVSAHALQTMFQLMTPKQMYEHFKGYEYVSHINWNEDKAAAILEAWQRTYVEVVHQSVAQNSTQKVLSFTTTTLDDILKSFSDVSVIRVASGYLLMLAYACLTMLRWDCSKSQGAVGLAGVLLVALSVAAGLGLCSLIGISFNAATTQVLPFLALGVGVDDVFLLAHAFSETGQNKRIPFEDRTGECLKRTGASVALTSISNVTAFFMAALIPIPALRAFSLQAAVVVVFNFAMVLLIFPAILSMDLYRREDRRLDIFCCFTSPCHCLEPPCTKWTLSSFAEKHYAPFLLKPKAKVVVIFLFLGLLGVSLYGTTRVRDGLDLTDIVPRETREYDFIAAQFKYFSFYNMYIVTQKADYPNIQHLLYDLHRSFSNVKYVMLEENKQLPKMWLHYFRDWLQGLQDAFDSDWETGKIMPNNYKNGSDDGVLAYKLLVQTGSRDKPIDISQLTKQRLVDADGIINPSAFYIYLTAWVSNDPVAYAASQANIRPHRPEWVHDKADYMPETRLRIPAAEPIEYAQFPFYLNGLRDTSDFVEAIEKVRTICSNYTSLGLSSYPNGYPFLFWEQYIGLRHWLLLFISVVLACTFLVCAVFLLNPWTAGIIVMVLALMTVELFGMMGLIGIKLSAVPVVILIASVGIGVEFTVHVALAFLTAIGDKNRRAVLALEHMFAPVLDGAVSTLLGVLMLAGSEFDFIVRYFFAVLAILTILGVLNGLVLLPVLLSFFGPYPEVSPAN", "test": "cell-based or functional assay", "data": [{"binder": "B1", "values": [{"measurement": "IC50 of the dose-dependent inhibition of HH signaling, Dual-Luciferase Reporter Assay in SHH-Light II cells; pair blocked: SHH with PTCH1", "result": "~77.8", "unit": "nM"}]}]}
